For eight sequences, phosphorylation enrichment and SH2 binding enrichment results are on record in the supplement of paper PMC10065799, “High-throughput profiling of sequence recognition by tyrosine kinases and SH2 domains using bacterial peptide display” (eLife, 2023).

For data set [1], the target named is Hck (UniProt P08631). Kind of data set: phosphorylation enrichment, bacterial display (enrichment ratio); higher = better substrate or ligand; peptides without Tyr show the background.
Data set [2] addresses Jak2 (UniProt O60674). Described as above.
For data set [3], the target named is Fyn (UniProt P06241). The description is as above.
Fyn, sequence (P06241 whole entry, looked up): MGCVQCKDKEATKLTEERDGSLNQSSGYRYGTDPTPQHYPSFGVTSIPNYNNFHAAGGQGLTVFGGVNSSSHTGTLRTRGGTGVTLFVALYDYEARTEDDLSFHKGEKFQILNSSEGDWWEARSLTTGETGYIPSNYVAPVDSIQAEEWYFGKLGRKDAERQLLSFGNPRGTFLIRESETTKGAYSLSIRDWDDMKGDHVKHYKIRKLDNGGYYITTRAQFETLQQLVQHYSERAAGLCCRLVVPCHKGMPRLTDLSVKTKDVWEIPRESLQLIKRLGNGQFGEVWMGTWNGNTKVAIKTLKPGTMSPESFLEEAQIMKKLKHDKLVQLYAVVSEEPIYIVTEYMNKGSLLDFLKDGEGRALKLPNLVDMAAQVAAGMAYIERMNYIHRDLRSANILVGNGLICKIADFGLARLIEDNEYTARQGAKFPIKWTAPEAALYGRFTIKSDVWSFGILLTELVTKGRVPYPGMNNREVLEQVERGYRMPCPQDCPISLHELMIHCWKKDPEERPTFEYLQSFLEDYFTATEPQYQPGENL
The target of data set [4] is Fes (UniProt P07332). The description is as above.
Fes, sequence (P07332 whole entry, looked up): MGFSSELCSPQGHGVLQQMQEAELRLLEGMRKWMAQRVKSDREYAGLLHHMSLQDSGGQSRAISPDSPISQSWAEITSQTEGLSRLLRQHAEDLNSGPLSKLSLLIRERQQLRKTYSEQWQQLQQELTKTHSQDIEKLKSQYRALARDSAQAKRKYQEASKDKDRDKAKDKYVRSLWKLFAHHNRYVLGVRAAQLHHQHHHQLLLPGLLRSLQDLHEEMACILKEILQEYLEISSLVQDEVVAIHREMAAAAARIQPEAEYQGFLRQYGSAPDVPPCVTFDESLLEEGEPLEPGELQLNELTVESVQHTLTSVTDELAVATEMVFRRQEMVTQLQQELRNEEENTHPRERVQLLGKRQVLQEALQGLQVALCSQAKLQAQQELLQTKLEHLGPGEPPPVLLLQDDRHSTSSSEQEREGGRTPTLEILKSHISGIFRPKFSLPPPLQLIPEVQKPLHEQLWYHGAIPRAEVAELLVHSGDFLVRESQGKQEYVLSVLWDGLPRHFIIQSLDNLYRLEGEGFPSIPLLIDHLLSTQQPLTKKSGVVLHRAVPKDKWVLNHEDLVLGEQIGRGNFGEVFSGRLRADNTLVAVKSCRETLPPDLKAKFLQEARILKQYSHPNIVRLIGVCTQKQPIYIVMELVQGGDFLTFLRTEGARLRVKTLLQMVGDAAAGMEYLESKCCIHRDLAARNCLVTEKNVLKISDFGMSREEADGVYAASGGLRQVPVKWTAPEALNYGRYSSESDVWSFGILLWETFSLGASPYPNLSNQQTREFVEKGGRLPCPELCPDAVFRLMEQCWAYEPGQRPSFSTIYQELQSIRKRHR
Data set [5] has as its system Fer (mouse). The description is as above.
In data set [6] the test system is c-Src. The data set is described as above.
Data set [7] concerns the target EPHB2 (UniProt P29323). Described as above.
The target of data set [8] is MERTK (UniProt Q12866). The data set is described as above.
The test system of data set [9] is c-Abl (mouse). The description is as above.
The target in data set [10] is EPHB1 (UniProt P54762). The data set is described as above.
Data set [11] addresses FGFR1 (UniProt P11362). The description is as above.
Data set [12] addresses FGFR3 (UniProt P22607). Described as above.
Data set [13] has as its system AncSZ. The description is as above.
Data set [14] addresses Grb2 SH2 (UniProt P62993). The data set can be described thus: SH2 binding enrichment of the phosphorylated peptide, bacterial display (enrichment ratio); higher = better substrate or ligand; peptides without Tyr show the background.
For data set [15], the target named is c-Src SH2. Described as above.
Data set [16] deals with SHP2-C SH2. The data set is described as above.
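Wherever SH2 binding enrichment of the phosphorylated peptide, bacterial display is given: peptide library displayed on the E. coli surface as eCPX fusions, selected cells deep-sequenced, score is each peptide's frequency after selection divided by its frequency in the input.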
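Wherever phosphorylation enrichment, bacterial display is given: 11-residue human phosphosite peptides and single-mutation variants displayed on the E. coli surface, counted by deep sequencing, each peptide's frequency after selection divided by its frequency in the unselected input library; frequency after pTyr selection over input frequency; kinase dosed for 20-30% of maximal phosphorylation in three min.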

Grb2 SH2, sequence (P62993 whole entry, looked up): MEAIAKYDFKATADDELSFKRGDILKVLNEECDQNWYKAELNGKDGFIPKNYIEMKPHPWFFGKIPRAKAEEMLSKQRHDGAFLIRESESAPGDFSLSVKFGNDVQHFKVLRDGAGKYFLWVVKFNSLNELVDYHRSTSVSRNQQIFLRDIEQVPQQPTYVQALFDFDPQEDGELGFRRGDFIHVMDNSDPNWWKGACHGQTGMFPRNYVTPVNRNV
Hck, sequence (P08631 whole entry, looked up): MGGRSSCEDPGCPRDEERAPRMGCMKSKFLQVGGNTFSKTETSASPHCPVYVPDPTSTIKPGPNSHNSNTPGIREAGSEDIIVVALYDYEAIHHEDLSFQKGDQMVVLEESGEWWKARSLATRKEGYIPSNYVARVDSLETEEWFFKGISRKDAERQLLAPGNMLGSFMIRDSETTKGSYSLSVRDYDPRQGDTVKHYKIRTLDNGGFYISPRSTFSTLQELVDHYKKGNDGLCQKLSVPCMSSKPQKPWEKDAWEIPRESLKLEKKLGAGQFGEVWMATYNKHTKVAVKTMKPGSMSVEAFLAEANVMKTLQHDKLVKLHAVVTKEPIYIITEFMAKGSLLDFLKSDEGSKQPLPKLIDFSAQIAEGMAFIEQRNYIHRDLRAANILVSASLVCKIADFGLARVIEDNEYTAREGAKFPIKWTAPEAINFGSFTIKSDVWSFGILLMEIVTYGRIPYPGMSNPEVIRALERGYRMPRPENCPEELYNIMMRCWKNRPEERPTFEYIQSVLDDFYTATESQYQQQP
FGFR1, sequence (P11362 whole entry, looked up): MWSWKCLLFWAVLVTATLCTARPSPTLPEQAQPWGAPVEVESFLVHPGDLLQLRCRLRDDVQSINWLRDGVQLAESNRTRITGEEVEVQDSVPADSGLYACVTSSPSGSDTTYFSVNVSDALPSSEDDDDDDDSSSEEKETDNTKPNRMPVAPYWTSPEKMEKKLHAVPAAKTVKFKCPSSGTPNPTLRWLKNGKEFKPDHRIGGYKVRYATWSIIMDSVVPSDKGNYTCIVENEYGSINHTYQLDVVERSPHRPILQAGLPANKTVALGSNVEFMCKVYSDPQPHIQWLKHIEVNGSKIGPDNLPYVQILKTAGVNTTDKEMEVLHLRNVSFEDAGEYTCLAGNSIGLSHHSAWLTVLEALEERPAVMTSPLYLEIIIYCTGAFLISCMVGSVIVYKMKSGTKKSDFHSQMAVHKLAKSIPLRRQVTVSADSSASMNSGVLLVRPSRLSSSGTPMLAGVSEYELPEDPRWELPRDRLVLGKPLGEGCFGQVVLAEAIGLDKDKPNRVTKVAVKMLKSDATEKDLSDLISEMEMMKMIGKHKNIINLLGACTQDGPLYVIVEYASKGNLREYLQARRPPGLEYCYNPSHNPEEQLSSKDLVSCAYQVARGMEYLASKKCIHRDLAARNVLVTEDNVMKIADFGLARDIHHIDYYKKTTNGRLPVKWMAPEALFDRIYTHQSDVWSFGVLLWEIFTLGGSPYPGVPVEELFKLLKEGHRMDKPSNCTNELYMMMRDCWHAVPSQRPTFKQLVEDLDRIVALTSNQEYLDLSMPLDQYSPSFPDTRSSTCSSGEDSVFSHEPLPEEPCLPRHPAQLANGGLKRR
Jak2, sequence (O60674 whole entry, looked up): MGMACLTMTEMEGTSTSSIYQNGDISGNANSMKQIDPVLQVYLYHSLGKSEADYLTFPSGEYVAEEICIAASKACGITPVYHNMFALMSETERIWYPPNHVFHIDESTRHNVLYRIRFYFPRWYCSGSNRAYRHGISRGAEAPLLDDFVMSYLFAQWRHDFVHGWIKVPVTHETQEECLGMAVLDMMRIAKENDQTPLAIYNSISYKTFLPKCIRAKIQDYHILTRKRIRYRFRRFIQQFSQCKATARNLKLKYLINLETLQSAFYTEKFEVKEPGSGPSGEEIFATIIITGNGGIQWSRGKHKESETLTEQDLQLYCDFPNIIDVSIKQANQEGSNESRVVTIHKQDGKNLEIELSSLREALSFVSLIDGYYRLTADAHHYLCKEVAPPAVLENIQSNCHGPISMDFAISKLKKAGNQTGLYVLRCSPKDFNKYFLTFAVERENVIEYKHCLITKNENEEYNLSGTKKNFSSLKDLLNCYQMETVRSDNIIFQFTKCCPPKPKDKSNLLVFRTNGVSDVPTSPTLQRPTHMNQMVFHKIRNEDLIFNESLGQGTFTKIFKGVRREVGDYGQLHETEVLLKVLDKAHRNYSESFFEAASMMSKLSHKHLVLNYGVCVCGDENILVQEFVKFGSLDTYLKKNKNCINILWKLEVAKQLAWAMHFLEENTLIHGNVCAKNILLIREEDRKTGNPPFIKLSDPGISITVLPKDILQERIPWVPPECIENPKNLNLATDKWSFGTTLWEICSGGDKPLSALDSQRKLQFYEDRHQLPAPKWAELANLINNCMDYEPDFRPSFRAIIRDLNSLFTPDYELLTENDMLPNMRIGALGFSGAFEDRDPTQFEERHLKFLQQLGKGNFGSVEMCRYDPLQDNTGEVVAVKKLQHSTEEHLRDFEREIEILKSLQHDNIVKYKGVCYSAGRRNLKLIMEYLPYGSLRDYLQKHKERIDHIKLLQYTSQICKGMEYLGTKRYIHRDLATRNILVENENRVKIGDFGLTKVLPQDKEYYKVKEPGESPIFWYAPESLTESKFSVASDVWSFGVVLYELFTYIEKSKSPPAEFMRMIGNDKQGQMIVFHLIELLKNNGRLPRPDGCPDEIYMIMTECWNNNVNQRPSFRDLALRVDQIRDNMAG
FGFR3, sequence (P22607 whole entry, looked up): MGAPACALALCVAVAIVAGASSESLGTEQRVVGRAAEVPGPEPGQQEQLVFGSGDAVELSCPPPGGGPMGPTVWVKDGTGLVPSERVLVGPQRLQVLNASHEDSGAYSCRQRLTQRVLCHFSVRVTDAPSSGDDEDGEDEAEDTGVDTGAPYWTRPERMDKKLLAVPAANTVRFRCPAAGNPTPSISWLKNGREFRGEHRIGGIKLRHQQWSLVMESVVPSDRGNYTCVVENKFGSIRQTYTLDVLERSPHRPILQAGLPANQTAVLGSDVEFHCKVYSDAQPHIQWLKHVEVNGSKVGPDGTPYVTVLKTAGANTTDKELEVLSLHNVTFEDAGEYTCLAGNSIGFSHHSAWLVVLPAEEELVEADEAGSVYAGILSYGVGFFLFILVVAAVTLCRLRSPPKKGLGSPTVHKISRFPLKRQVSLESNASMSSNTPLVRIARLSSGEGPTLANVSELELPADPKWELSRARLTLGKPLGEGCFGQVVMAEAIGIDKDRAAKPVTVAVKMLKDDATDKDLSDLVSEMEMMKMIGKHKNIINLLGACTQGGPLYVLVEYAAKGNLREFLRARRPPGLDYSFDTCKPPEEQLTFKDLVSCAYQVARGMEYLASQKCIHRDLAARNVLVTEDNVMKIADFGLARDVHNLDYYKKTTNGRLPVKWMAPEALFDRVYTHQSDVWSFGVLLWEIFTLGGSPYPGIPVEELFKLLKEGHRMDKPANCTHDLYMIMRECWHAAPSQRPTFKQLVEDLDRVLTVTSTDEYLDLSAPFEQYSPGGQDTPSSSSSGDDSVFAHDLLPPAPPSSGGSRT

As to GGPAGYLWRAS [PKLR_Y38_R40W], the phosphorylation enrichment in data set [1] is 0.371; in [2] it was 0.601; in data set [3], 0.384; in [4], 0.941; in [5], 0.392; in data set [6] it was 0.344. Moreover, the phosphorylation enrichment in data set [7] amounted to 0.439; in data set [8] it was 0.392; in data set [9] it was 0.529; in data set [10], 0.454; in [11] it was 0.413; in [12], 0.505. For the same sequence, the phosphorylation enrichment in [13] is 0.683. Moreover, the SH2 binding enrichment worked out at 0.981 in data set [14], 0.594 in data set [15] and 0.729 in data set [16].
Turning to GGYTRYCDGKK [PROS1_Y266_C265R], the phosphorylation enrichment in data set [1] is 0.446; in data set [2] it was 0.759; in [3] it was 0.365; in [4], 0.585; in data set [5] it was 0.357; in data set [6], 0.338. Besides, the phosphorylation enrichment in data set [7] is 0.386; in data set [8], 0.4; in data set [9], 0.528; in data set [10], 0.347; in [11] it was 0.37; in data set [12], 0.436. The phosphorylation enrichment in data set [13] was 0.649. In addition, the SH2 binding enrichment in [14] turned out to be 1.31; in data set [15] it was 1.21; in data set [16] it was 0.889.
As to GKLIFHDLRGE [KARS1_Y145_Y145H], the phosphorylation enrichment in data set [1] amounted to 0.389; in data set [2] it was 0.632; in data set [3] it was 0.369; in [4], 0.802; in [5], 0.389; in [6], 0.399. Further, the phosphorylation enrichment in data set [7] turned out to be 0.405; in data set [8], 0.383; in data set [9], 0.504; in data set [10] it was 0.475; in data set [11], 0.37; in data set [12] it was 0.575. Besides, in data set [13], the phosphorylation enrichment turned out to be 0.696. In addition, the SH2 binding enrichment in data set [14] was determined as 0.825; in data set [15], 0.473; in data set [16] it was 0.824.
For GKTFTYHSVFF [ZNF80_Y200_R201H], the phosphorylation enrichment came out at 0.592 in data set [1]; 1.3 in data set [2]; 0.596 in data set [3]; 1.25 in data set [4]; 0.655 in data set [5]; 0.999 in [6]. Besides, the phosphorylation enrichment in [7] came out at 0.547; in [8], 0.46; in data set [9], 1; in data set [10] it was 0.602; in data set [11], 0.618; in [12], 0.904. For the same sequence, the phosphorylation enrichment in [13] worked out at 1.31. The results for the SH2 binding enrichment in data set [14], in [15] and in data set [16] were 0.89, 0.655 and 0.645, respectively.
On to GKVADYIPQLA [GLS_Y249], for which the phosphorylation enrichment in data set [1] was determined as 0.408; in [2], 0.5; in data set [3], 0.514; in data set [4], 0.684; in data set [5], 0.453; in [6], 0.349. Further, the phosphorylation enrichment in [7] turned out to be 0.477; in data set [8], 0.396; in data set [9], 0.483; in data set [10], 0.51; in [11], 0.478; in data set [12], 0.538. For the same sequence, the phosphorylation enrichment in data set [13] is 0.634. Also, the SH2 binding enrichment in [14] came to 0.882; in [15], 0.481; in data set [16] it was 0.924.
On to GKVFVYHGSSL [ITGA7_Y458_I457V], for which the phosphorylation enrichment in data set [1] was determined as 0.434; in data set [2], 0.674; in [3] it was 0.449; in data set [4], 1.06; in [5], 0.476; in data set [6], 0.349. For the same sequence, the phosphorylation enrichment in data set [7] was found to be 0.523; in [8], 0.435; in [9] it was 0.563; in [10] it was 0.564; in data set [11] it was 0.514; in data set [12] it was 0.676. For the same sequence, the phosphorylation enrichment in data set [13] amounted to 1.03. Moreover, the figures for the SH2 binding enrichment in [14], in data set [15] and in data set [16] were 1.06, 0.638 and 0.64, respectively.
Turning to GLDGSYLLRYS [SH2D1A_Y29_D33Y], the phosphorylation enrichment turned out to be 0.512 in [1]; 0.665 in data set [2]; 0.485 in [3]; 0.979 in data set [4]; 0.415 in [5]; 0.441 in data set [6]. Besides, the phosphorylation enrichment in data set [7] turned out to be 0.455; in [8], 0.434; in [9], 0.542; in [10], 0.436; in data set [11], 0.478; in data set [12], 0.57. Besides, the phosphorylation enrichment in data set [13] is 0.685. Besides, the results for the SH2 binding enrichment in [14], in data set [15] and in data set [16] were 0.97, 0.438 and 1.14, respectively.
As to GLIPAYHRVIV [NMNAT1_Y64_M69V], the phosphorylation enrichment in data set [1] came out at 0.481; in data set [2], 1.15; in data set [3], 0.458; in data set [4] it was 0.933; in data set [5], 0.44; in data set [6] it was 0.371. Further, the phosphorylation enrichment in [7] is 0.453; in data set [8], 0.437; in [9], 0.622; in data set [10] it was 0.515; in [11], 0.627; in [12], 0.639. Moreover, the phosphorylation enrichment in data set [13] stood at 0.804. Moreover, the SH2 binding enrichment in data set [14] worked out at 0.987; in data set [15], 1.26; in [16], 0.957.
